Laboratory results from the RNAGym collection of RNA variant scans (doi:10.1073/pnas.2313332121).
This sample holds only a part of the variants without activity.

B1: TPR 5TU (parent)
chain: GGAUCUUCUCGAUCUAACAAAAAAGACAAAUCUGCCACAAAGCUUGAGAGCAUCUUCGGAUGCAGAGGCGGCAGCCUUCGGUGGCGCGAUAGCGCCAACGUUCUCAACUAUGACACGCAAAACGCGUGCUCCGUUGAAUGGAGUUUAUCAUG

Variants of: B1
Experiment: polymerase ribozyme fitness, log enrichment relative to wild type (log ratio); higher = more active; in vitro selection for triplet polymerase activity
Outline: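 Mutant libraries of both subunits of a heterodimeric triplet polymerase ribozyme were PCR-built, transcribed, and selected once in triplicate, with frozen incubation at −7 °C and capture of gel-excised extended constructs on streptavidin beads before RT-PCR. Illumina sequencing of input and output libraries was filtered to genotypes with ≥10 input reads and ≥1 read per output. Fitness is the logarithm of genotype enrichment over wild-type enrichment, using inverse-variance-weighted replicate averages. The logarithm is base 2.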

| Variant | polymerase ribozyme fitness (log ratio) |
| --- | --- |
| G83C C132G | ≤ -4.2 |
| G83C C96A A150C | -3.75 |
| G83C G136U | -2.46 |
| C79A C87G | ≤ -4.2 |
| G83A A150U | 0.356 |
| G83A A150C | -3.77 |
| G83A A107G G136A G140A | ≤ -4.2 |
| U82A C93G G126U | -2.84 |
| C79U A91U C103G U135A | ≤ -4.2 |
| G80A G88C A113U C116U U148A | ≤ -4.2 |
| G81U G84U | -2.19 |
| U78A G81A C93G A97U U151C | ≤ -4.2 |
| C79G U82A C87U C103A | ≤ -4.2 |
| G83A U134A | -2.04 |
| C76U C93U A97U | -0.802 |
| U78A G133A U139G | ≤ -4.2 |
| G81A A120U G128A | -3.29 |
| C75U G92C U109A U146G | -3.93 |
| G83C U104G C116U | -1.3 |
| G83C C129G A137C U145C | ≤ -4.2 |
| G80U C114U U144C | -3.95 |

| Variant | polymerase ribozyme fitness (log ratio) |
| --- | --- |
| C79U C85G A138G | ≤ -4.2 |
| C76A C85U A137G | -1.76 |
| C76A G83A U134G | -3.45 |
| U78A C93U | ≤ -4.2 |
| G80C C93G | -4.2 |
| C79U G86A C96U C149G | ≤ -4.2 |
| U77A G92U C99G | -4.06 |
| A73U C76G G94A | ≤ -4.2 |
| C75U G84U U134C | -1.39 |
| U82C C96A | -0.964 |
| G81C U135C | -2.22 |
| G83A G88U U111G U135A | ≤ -4.2 |
| C75U C85U A119G G143A A147C | -3.76 |
| C76A U145G | -0.329 |
| G83A C108U | -3.01 |
| G81C C85U A89U A142G | -1.67 |
| G83A U151G | -3.97 |
| C76A G86C C116G C123A | -2.66 |
| U82G G84C | -4.06 |
| G81A A107U | -3.89 |
| U82C C95G U148C | -4.02 |

| Variant | polymerase ribozyme fitness (log ratio) |
| --- | --- |
| C79A C87G A113G | ≤ -4.2 |
| G83C A107C | ≤ -4.2 |
| C76U G86A | -0.246 |
| C75U A91G A147C | -3.68 |
| C79U U134A | -4.05 |
| G80A A89U C95U A120G | -1.11 |
| G83A C105U A110G U134C | -3.98 |
| C76A G88C | ≤ -4.2 |
| U78G C85G G140A | ≤ -4.2 |
| G74A G141A | -2.42 |
| C76U U78A A107U G126A | ≤ -4.2 |
| U82G C93U C131G G140U U146A | ≤ -4.2 |
| U82C C95A | -1.46 |
| C75U G92U C105G A115U | -4.17 |
| G80U G81A A142G | -1.49 |
| C75A U144G | ≤ -4.2 |
| U78G G86U | ≤ -4.2 |
| G80C | -3.5 |
| G80U | -0.409 |
| G80A | -0.0737 |
| C76U A121U | 0.67 |

| Variant | polymerase ribozyme fitness (log ratio) |
| --- | --- |
| C76G A106G G133A | ≤ -4.2 |
| C76A C87G C93U | ≤ -4.2 |
| C76U C118A | -2.21 |
| G81A G86A A97C | -0.925 |
| A73U C95U G140A A142C | ≤ -4.2 |
| U77G G84A G117U U135G | ≤ -4.2 |
| U77A G88U C103G U151C | ≤ -4.2 |
| G83A C125A | -0.344 |
| G83A A147C | 0.0173 |
| C76A G143U | -3.02 |
| G81A G94A G143U | -2.83 |
| C75U A91G C99U | -3.56 |
| C75G G84A A107U A121U U151C | ≤ -4.2 |
| C75G A113U | ≤ -4.2 |
| C76U C79A C93U C116A C118A | ≤ -4.2 |
| C76A A110U U139C G143U | ≤ -4.2 |
| G83C A147U | 0.501 |
| G80A G84A | -0.264 |
| C76U C93U | -2.28 |
| G81C C87A C99G | ≤ -4.2 |
